Measured values taken from PMC4477663 (Nucleic Acids Research, 2015).

Assays:
Assay in all cases: pull-down
[1] = biological target: recombinant APE1 C65S+C99S (UniProt P27695 1-318, C65S | C99S)
recombinant APE1 C65S = recombinant APE1 C65S (UniProt P27695 1-318, C65S)
recombinant APE1 C99S = recombinant APE1 C99S (UniProt P27695 1-318, C99S)

Measured: binding result

Chain of recombinant APE1 C65S (P27695 whole entry C65S): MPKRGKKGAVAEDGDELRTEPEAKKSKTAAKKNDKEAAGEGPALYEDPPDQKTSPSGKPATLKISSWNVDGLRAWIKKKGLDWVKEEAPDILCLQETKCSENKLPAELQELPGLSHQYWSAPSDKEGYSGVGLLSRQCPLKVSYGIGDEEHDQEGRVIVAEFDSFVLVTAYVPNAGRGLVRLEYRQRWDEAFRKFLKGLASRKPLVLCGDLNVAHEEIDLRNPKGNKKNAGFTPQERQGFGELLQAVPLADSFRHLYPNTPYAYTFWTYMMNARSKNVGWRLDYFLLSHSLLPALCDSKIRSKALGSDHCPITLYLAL
Chain of recombinant APE1 C65S+C99S (P27695 whole entry C65S/C99S): as the sequence (P27695 whole entry C65S) above, with C99S counted along it
Chain of recombinant APE1 C99S (P27695 whole entry C99S): as the sequence (P27695 whole entry C65S) above, with S65C, C99S counted along it

B1: recombinant GST-Mia40 wild type (natural protein, human, UniProt Q8N4Q1 1-142, looked up)
chain: MSYCRQEGKDRIIFVTKEDHETPSSAELVADDPNDPYEEHGLILPNGNINWNCPCLGGMASGPCGEQFKSAFSCFHYSTEEIKGSDCVDQFRAMQECMQKYPDLYPQEDEDEEEEREKKPAEQAEETAPIEATATKEEEGSS
binds: all assays above
